According to PMC8438039:

Target: human Toll-like receptor 5 (hTLR5) on HEK-Blue hTLR5 cells (human) (UniProt O60602)
Sequence of UniProt O60602 (O60602 21-858): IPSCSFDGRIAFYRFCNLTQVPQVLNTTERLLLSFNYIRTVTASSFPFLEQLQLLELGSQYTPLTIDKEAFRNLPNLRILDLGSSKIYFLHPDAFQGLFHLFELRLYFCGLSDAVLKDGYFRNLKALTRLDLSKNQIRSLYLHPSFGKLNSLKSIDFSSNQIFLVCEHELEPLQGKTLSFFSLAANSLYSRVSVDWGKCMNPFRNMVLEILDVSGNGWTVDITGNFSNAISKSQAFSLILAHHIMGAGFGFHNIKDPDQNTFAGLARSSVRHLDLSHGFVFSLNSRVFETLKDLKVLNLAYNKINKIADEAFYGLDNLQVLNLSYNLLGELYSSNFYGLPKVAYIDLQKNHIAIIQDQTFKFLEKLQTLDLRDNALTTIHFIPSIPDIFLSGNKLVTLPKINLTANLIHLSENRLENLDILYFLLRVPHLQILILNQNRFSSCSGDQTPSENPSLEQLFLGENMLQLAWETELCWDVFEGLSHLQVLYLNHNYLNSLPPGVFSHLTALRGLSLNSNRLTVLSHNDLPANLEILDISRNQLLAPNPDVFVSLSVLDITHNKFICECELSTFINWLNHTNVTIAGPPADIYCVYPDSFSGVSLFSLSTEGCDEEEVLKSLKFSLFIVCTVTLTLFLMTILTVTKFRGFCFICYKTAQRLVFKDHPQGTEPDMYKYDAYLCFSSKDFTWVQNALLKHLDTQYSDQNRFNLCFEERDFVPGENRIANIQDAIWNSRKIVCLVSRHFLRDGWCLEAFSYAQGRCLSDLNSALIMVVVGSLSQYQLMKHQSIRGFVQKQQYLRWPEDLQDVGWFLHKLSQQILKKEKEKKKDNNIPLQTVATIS

Row | Substance | EC50 of TLR5-dependent NF-κB activation in HEK-Blue hTLR5 cells (OD 620; 0.03719 nM to 76.16 nM protein)
1 | D2D3 domain-depleted FlaB (FlaB^ΔD2D3) (natural protein) | 13.2 nM
2 | Vibrio vulnificus flagellin B (FlaB), wild type recombinant (natural protein) | 4.18 nM
3 | deimmunized FlaB (dFlaB), FlaB lacking residues 175-193 (natural protein) | 9.01 nM
